# Results from the supplement of paper PMC7877785.
# ± gives the uncertainty stated by the source.
# Test: self-splicing fitness, log relative to wild type (ln ratio); higher = more splicing; Tetrahymena group I intron in knt gene, E. coli kanamycin selection, DiMSum; sequences stand for … in CUCUCU…GGAGGGAAAAGUUAUCAGGCAUGCACCUGGUAGCUAGUCUUUAAACCAAUAGAUUGCAUCGGUUUAAAAGGCAAGACCGUCAAAUUGCGGGAAAGGGGUCAACAGCCGUUCAGUACCAAGUCUCAGGGGAAACUUUGAGAUGGCCUUGCAAAGGGUAUGGUAAUAAGCUGACGGACAUGGUCCUAACCACGCAGCCAAGUCCUAAGUCAACAGAUCUUCUGUUGAUAUGGAUGCAGUUCACAGACUAAAUGUCGGUCGGGGAAGAUGUAUUCUUCUCAUAAGAUAUAGUCGGACCUCUCCUUAAUGGGAGCUAGCGGAUGAAGUGAUGCAACACUGGAGCCGCUGGGAACUAAUUUGUAUGCGAAAGUAUAUUGAUUAGUUUUGGAGUACUCGUGGUCG
# In short: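 The eight P1ex-region nucleotides of an intron in the knt kanamycin-resistance gene on pET-22b(+) were all randomised and the library put into E. coli BL21(DE3). Six replicate transformations were grown overnight at 37°C or 30°C on LB agar with or without 25 μg/mL kanamycin, together with 100 μg/mL carbenicillin, 50 μM IPTG and 0.2% rhamnose. Colonies were pooled and amplicon-sequenced on an Illumina HiSeq 2500. Fitness from DiMSum is the error-weighted combination of wild-type-normalised replicate fold changes, kanamycin over none.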
Sequence,self-splicing fitness (ln) (30 °C),self-splicing fitness (ln) (37 °C)
GUUUAGCAAUAUUACGUUUG,-3.92 ± 0.33,-1.45 ± 0.21
GCUUAGCAAUAUUACGCACG,-2.19 ± 0.092,-0.388 ± 0.1
CAUCAGCAAUAUUACGGCCU,-3.29 ± 0.16,-2.15 ± 0.16
CACUAGCAAUAUUACGUUCA,-2.34 ± 0.17,-2.49 ± 0.2
UAAUAGCAAUAUUACGAUCG,0.121 ± 0.076,0.472 ± 0.099
AUACAGCAAUAUUACGGCCU,-0.505 ± 0.093,0.263 ± 0.1
CGGGAGCAAUAUUACGCUCG,,-0.772 ± 0.32
CCGCAGCAAUAUUACGUUAA,-3.03 ± 0.18,-2.1 ± 0.2
UUCGAGCAAUAUUACGCCAG,-2.94 ± 0.24,-0.74 ± 0.21
UAUAAGCAAUAUUACGCCGG,-0.545 ± 0.16,-0.0733 ± 0.18
UAUAAGCAAUAUUACGGAAU,-2.37 ± 0.22,-0.6 ± 0.16
AGUGAGCAAUAUUACGGACG,-1.16 ± 0.15,-1.45 ± 0.21
CUUCAGCAAUAUUACGAGCC,-2.29 ± 0.21,-1.59 ± 0.3
GAUGAGCAAUAUUACGAUAC,-3.7 ± 0.38,-0.654 ± 0.2
UGUAAGCAAUAUUACGUUUG,-1.24 ± 0.069,-0.871 ± 0.084
AGUUAGCAAUAUUACGCCCA,-1.44 ± 0.32,-0.867 ± 0.33
UUAAAGCAAUAUUACGACAA,0.44 ± 0.091,0.336 ± 0.11
UUGAAGCAAUAUUACGCGUG,-0.176 ± 0.07,-0.123 ± 0.099
GAUUAGCAAUAUUACGUUCG,-1.94 ± 0.16,-1.44 ± 0.13
CUGCAGCAAUAUUACGGUCA,-3.07 ± 0.23,-2.18 ± 0.16
CAAAAGCAAUAUUACGCUGC,-3.02 ± 0.25,-3.03 ± 0.29
UGAGAGCAAUAUUACGGUAG,-3.74 ± 0.34,-2.88 ± 0.38
CCGGAGCAAUAUUACGGGGG,-3.5 ± 0.2,-1.83 ± 0.17
GUGGAGCAAUAUUACGGUGG,-3.76 ± 0.23,-2.5 ± 0.23

Sequence,self-splicing fitness (ln) (30 °C),self-splicing fitness (ln) (37 °C)
AGCCAGCAAUAUUACGAUUU,-2.3 ± 0.1,-1.24 ± 0.11
CUUUAGCAAUAUUACGCUAC,-2.83 ± 0.35,
GGAGAGCAAUAUUACGUCCU,-3.2 ± 0.24,-3.27 ± 0.43
UCUAAGCAAUAUUACGCGGA,-2.69 ± 0.3,-2.47 ± 0.24
UUCAAGCAAUAUUACGGGCA,-0.666 ± 0.11,0.111 ± 0.1
GAAAAGCAAUAUUACGUUCU,-3.87 ± 0.17,-3.19 ± 0.18
UUCGAGCAAUAUUACGAUAA,-1.53 ± 0.097,-0.787 ± 0.11
ACUUAGCAAUAUUACGUUAG,-2.09 ± 0.09,-1.5 ± 0.12
CUCCAGCAAUAUUACGUUGG,-3.68 ± 0.19,-2.49 ± 0.21
ACACAGCAAUAUUACGACUA,-1.22 ± 0.091,-0.346 ± 0.084
CAACAGCAAUAUUACGGAGC,-2.28 ± 0.15,-3.18 ± 0.27
CGAGAGCAAUAUUACGUAUU,-2.53 ± 0.28,-1.4 ± 0.28
CACUAGCAAUAUUACGAUCA,-2.46 ± 0.17,-1.22 ± 0.16
UUUUAGCAAUAUUACGUUCU,-3.48 ± 0.37,-1.17 ± 0.17
GCCUAGCAAUAUUACGGUCA,-0.989 ± 0.13,-0.494 ± 0.12
CAUUAGCAAUAUUACGCUCG,-0.328 ± 0.11,0.302 ± 0.13
UUCAAGCAAUAUUACGUCUG,-3.08 ± 0.24,-1.46 ± 0.14
AUUGAGCAAUAUUACGCUAG,,-2.2 ± 0.22
ACGGAGCAAUAUUACGGUUC,-4.29 ± 0.37,-1.32 ± 0.22
UAGUAGCAAUAUUACGCGAG,-1.57 ± 0.12,-0.941 ± 0.17
GAUUAGCAAUAUUACGAACA,-0.848 ± 0.21,0.129 ± 0.17
GAUAAGCAAUAUUACGACCG,-1.01 ± 0.18,-0.581 ± 0.36
CUCGAGCAAUAUUACGAGAU,-2.87 ± 0.23,-2.76 ± 0.27
UUUCAGCAAUAUUACGGGAC,-2.81 ± 0.21,-1.4 ± 0.19
